Square brackets hold non-standard residues; d marks the D form. Aib = CC(C)(N)C(=O)O
Tests used:
human GIP receptor = target: T1, human GIP receptor (human, UniProt P48546 22-466); assay: cell-based or functional assay
T1 sequence (looked up): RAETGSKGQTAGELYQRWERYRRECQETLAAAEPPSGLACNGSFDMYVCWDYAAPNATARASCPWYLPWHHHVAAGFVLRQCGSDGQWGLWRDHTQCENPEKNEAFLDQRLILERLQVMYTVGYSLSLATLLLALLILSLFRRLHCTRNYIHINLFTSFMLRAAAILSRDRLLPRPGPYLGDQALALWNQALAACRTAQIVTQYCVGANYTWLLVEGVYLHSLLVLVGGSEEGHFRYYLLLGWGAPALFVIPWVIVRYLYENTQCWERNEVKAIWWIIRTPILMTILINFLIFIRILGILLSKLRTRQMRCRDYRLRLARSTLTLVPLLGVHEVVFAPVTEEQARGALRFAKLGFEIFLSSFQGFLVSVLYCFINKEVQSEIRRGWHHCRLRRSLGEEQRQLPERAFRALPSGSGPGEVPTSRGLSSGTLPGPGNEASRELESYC

human GLP-1 receptor = human GLP-1 receptor (human, UniProt P43220 24-463); assay: cell-based or functional assay

Binder	EC50, cAMP induction in HEK293 cells expressing human GIP R (human GIP receptor) [nM]	EC50, cAMP induction in HEK293 cells expressing human GLP-1 R (human GLP-1 receptor) [nM]
H-Y[Aib]EGTFTSDYSIYLDSKAKRAFVNWLLA[Aib]K-NH2 (SMILES CC[C@H](C)[C@H](NC(=O)[C@H](CO)NC(=O)[C@H](Cc1ccc(O)cc1)NC(=O)[C@H](CC(=O)O)NC(=O)[C@H](CO)NC(=O)[C@@H](NC(=O)[C@H](Cc1ccccc1)NC(=O)[C@@H](NC(=O)CNC(=O)[C@H](CCC(=O)O)NC(=O)C(C)(C)NC(=O)[C@@H](N)Cc1ccc(O)cc1)[C@@H](C)O)[C@@H](C)O)C(=O)N[C@@H](Cc1ccc(O)cc1)C(=O)N[C@@H](CC(C)C)C(=O)N[C@@H](CC(=O)O)C(=O)N[C@@H](CO)C(=O)N[C@@H](CCCCN)C(=O)N[C@@H](C)C(=O)N[C@@H](CCCCN)C(=O)N[C@@H](CCCNC(=N)N)C(=O)N[C@@H](C)C(=O)N[C@@H](Cc1ccccc1)C(=O)N[C@H](C(=O)N[C@@H](CC(N)=O)C(=O)N[C@@H](Cc1c[nH]c2ccccc12)C(=O)N[C@@H](CC(C)C)C(=O)N[C@@H](CC(C)C)C(=O)N[C@@H](C)C(=O)NC(C)(C)C(=O)N[C@@H](CCCCN)C(N)=O)C(C)C) [Compound 18]	0.36	0.015
H-Y[Aib]EGTFTSDYSIYLDEKAQRAFVNWLLA[Aib]K-NH2 (SMILES CC[C@H](C)[C@H](NC(=O)[C@H](CO)NC(=O)[C@H](Cc1ccc(O)cc1)NC(=O)[C@H](CC(=O)O)NC(=O)[C@H](CO)NC(=O)[C@@H](NC(=O)[C@H](Cc1ccccc1)NC(=O)[C@@H](NC(=O)CNC(=O)[C@H](CCC(=O)O)NC(=O)C(C)(C)NC(=O)[C@@H](N)Cc1ccc(O)cc1)[C@@H](C)O)[C@@H](C)O)C(=O)N[C@@H](Cc1ccc(O)cc1)C(=O)N[C@@H](CC(C)C)C(=O)N[C@@H](CC(=O)O)C(=O)N[C@@H](CCC(=O)O)C(=O)N[C@@H](CCCCN)C(=O)N[C@@H](C)C(=O)N[C@@H](CCC(N)=O)C(=O)N[C@@H](CCCNC(=N)N)C(=O)N[C@@H](C)C(=O)N[C@@H](Cc1ccccc1)C(=O)N[C@H](C(=O)N[C@@H](CC(N)=O)C(=O)N[C@@H](Cc1c[nH]c2ccccc12)C(=O)N[C@@H](CC(C)C)C(=O)N[C@@H](CC(C)C)C(=O)N[C@@H](C)C(=O)NC(C)(C)C(=O)N[C@@H](CCCCN)C(N)=O)C(C)C) [Compound 17]	0.021	0.0074
H-Y[Aib]EGTFTSDYSIYLDKKAQRAFVKWLLA[Aib]K-NH2 (SMILES CC[C@H](C)[C@H](NC(=O)[C@H](CO)NC(=O)[C@H](Cc1ccc(O)cc1)NC(=O)[C@H](CC(=O)O)NC(=O)[C@H](CO)NC(=O)[C@@H](NC(=O)[C@H](Cc1ccccc1)NC(=O)[C@@H](NC(=O)CNC(=O)[C@H](CCC(=O)O)NC(=O)C(C)(C)NC(=O)[C@@H](N)Cc1ccc(O)cc1)[C@@H](C)O)[C@@H](C)O)C(=O)N[C@@H](Cc1ccc(O)cc1)C(=O)N[C@@H](CC(C)C)C(=O)N[C@@H](CC(=O)O)C(=O)N[C@@H](CCCCN)C(=O)N[C@@H](CCCCN)C(=O)N[C@@H](C)C(=O)N[C@@H](CCC(N)=O)C(=O)N[C@@H](CCCNC(=N)N)C(=O)N[C@@H](C)C(=O)N[C@@H](Cc1ccccc1)C(=O)N[C@H](C(=O)N[C@@H](CCCCN)C(=O)N[C@@H](Cc1c[nH]c2ccccc12)C(=O)N[C@@H](CC(C)C)C(=O)N[C@@H](CC(C)C)C(=O)N[C@@H](C)C(=O)NC(C)(C)C(=O)N[C@@H](CCCCN)C(N)=O)C(C)C) [Compound 20]	0.049	0.009
H-Y[Aib]EGTFTSDYSIYLDKKAQRAFVNWLVA[Aib]K-NH2 (SMILES CC[C@H](C)[C@H](NC(=O)[C@H](CO)NC(=O)[C@H](Cc1ccc(O)cc1)NC(=O)[C@H](CC(=O)O)NC(=O)[C@H](CO)NC(=O)[C@@H](NC(=O)[C@H](Cc1ccccc1)NC(=O)[C@@H](NC(=O)CNC(=O)[C@H](CCC(=O)O)NC(=O)C(C)(C)NC(=O)[C@@H](N)Cc1ccc(O)cc1)[C@@H](C)O)[C@@H](C)O)C(=O)N[C@@H](Cc1ccc(O)cc1)C(=O)N[C@@H](CC(C)C)C(=O)N[C@@H](CC(=O)O)C(=O)N[C@@H](CCCCN)C(=O)N[C@@H](CCCCN)C(=O)N[C@@H](C)C(=O)N[C@@H](CCC(N)=O)C(=O)N[C@@H](CCCNC(=N)N)C(=O)N[C@@H](C)C(=O)N[C@@H](Cc1ccccc1)C(=O)N[C@H](C(=O)N[C@@H](CC(N)=O)C(=O)N[C@@H](Cc1c[nH]c2ccccc12)C(=O)N[C@@H](CC(C)C)C(=O)N[C@H](C(=O)N[C@@H](C)C(=O)NC(C)(C)C(=O)N[C@@H](CCCCN)C(N)=O)C(C)C)C(C)C) [Compound 21]	0.08	0.009
H-Y[Aib]EGTFTSDYSI[Aib]LDKKAQRAFVEWLLAQGPSSGAPPPS-NH2 (SMILES CC[C@H](C)[C@H](NC(=O)[C@H](CO)NC(=O)[C@H](Cc1ccc(O)cc1)NC(=O)[C@H](CC(=O)O)NC(=O)[C@H](CO)NC(=O)[C@@H](NC(=O)[C@H](Cc1ccccc1)NC(=O)[C@@H](NC(=O)CNC(=O)[C@H](CCC(=O)O)NC(=O)C(C)(C)NC(=O)[C@@H](N)Cc1ccc(O)cc1)[C@@H](C)O)[C@@H](C)O)C(=O)NC(C)(C)C(=O)N[C@@H](CC(C)C)C(=O)N[C@@H](CC(=O)O)C(=O)N[C@@H](CCCCN)C(=O)N[C@@H](CCCCN)C(=O)N[C@@H](C)C(=O)N[C@@H](CCC(N)=O)C(=O)N[C@@H](CCCNC(=N)N)C(=O)N[C@@H](C)C(=O)N[C@@H](Cc1ccccc1)C(=O)N[C@H](C(=O)N[C@@H](CCC(=O)O)C(=O)N[C@@H](Cc1c[nH]c2ccccc12)C(=O)N[C@@H](CC(C)C)C(=O)N[C@@H](CC(C)C)C(=O)N[C@@H](C)C(=O)N[C@@H](CCC(N)=O)C(=O)NCC(=O)N1CCC[C@H]1C(=O)N[C@@H](CO)C(=O)N[C@@H](CO)C(=O)NCC(=O)N[C@@H](C)C(=O)N1CCC[C@H]1C(=O)N1CCC[C@H]1C(=O)N1CCC[C@H]1C(=O)N[C@@H](CO)C(N)=O)C(C)C) [Compound 2]	0.0068	0.015
H-Y[Aib]EGTFTSDYSIYLDSKAQRAFVNWLLA[Aib]K-NH2 (SMILES CC[C@H](C)[C@H](NC(=O)[C@H](CO)NC(=O)[C@H](Cc1ccc(O)cc1)NC(=O)[C@H](CC(=O)O)NC(=O)[C@H](CO)NC(=O)[C@@H](NC(=O)[C@H](Cc1ccccc1)NC(=O)[C@@H](NC(=O)CNC(=O)[C@H](CCC(=O)O)NC(=O)C(C)(C)NC(=O)[C@@H](N)Cc1ccc(O)cc1)[C@@H](C)O)[C@@H](C)O)C(=O)N[C@@H](Cc1ccc(O)cc1)C(=O)N[C@@H](CC(C)C)C(=O)N[C@@H](CC(=O)O)C(=O)N[C@@H](CO)C(=O)N[C@@H](CCCCN)C(=O)N[C@@H](C)C(=O)N[C@@H](CCC(N)=O)C(=O)N[C@@H](CCCNC(=N)N)C(=O)N[C@@H](C)C(=O)N[C@@H](Cc1ccccc1)C(=O)N[C@H](C(=O)N[C@@H](CC(N)=O)C(=O)N[C@@H](Cc1c[nH]c2ccccc12)C(=O)N[C@@H](CC(C)C)C(=O)N[C@@H](CC(C)C)C(=O)N[C@@H](C)C(=O)NC(C)(C)C(=O)N[C@@H](CCCCN)C(N)=O)C(C)C) [Compound 16]	0.053	0.012
H-Y[Aib]EGTFTSDYSIYLDKKAQRAFVNWLKA[Aib]K-NH2 (SMILES CC[C@H](C)[C@H](NC(=O)[C@H](CO)NC(=O)[C@H](Cc1ccc(O)cc1)NC(=O)[C@H](CC(=O)O)NC(=O)[C@H](CO)NC(=O)[C@@H](NC(=O)[C@H](Cc1ccccc1)NC(=O)[C@@H](NC(=O)CNC(=O)[C@H](CCC(=O)O)NC(=O)C(C)(C)NC(=O)[C@@H](N)Cc1ccc(O)cc1)[C@@H](C)O)[C@@H](C)O)C(=O)N[C@@H](Cc1ccc(O)cc1)C(=O)N[C@@H](CC(C)C)C(=O)N[C@@H](CC(=O)O)C(=O)N[C@@H](CCCCN)C(=O)N[C@@H](CCCCN)C(=O)N[C@@H](C)C(=O)N[C@@H](CCC(N)=O)C(=O)N[C@@H](CCCNC(=N)N)C(=O)N[C@@H](C)C(=O)N[C@@H](Cc1ccccc1)C(=O)N[C@H](C(=O)N[C@@H](CC(N)=O)C(=O)N[C@@H](Cc1c[nH]c2ccccc12)C(=O)N[C@@H](CC(C)C)C(=O)N[C@@H](CCCCN)C(=O)N[C@@H](C)C(=O)NC(C)(C)C(=O)N[C@@H](CCCCN)C(N)=O)C(C)C) [Compound 23]	0.42	0.012
H-Y[Aib]EGTFTSDYSIYLDKKAQKEFVNWLLA[Aib]K-NH2 (SMILES CC[C@H](C)[C@H](NC(=O)[C@H](CO)NC(=O)[C@H](Cc1ccc(O)cc1)NC(=O)[C@H](CC(=O)O)NC(=O)[C@H](CO)NC(=O)[C@@H](NC(=O)[C@H](Cc1ccccc1)NC(=O)[C@@H](NC(=O)CNC(=O)[C@H](CCC(=O)O)NC(=O)C(C)(C)NC(=O)[C@@H](N)Cc1ccc(O)cc1)[C@@H](C)O)[C@@H](C)O)C(=O)N[C@@H](Cc1ccc(O)cc1)C(=O)N[C@@H](CC(C)C)C(=O)N[C@@H](CC(=O)O)C(=O)N[C@@H](CCCCN)C(=O)N[C@@H](CCCCN)C(=O)N[C@@H](C)C(=O)N[C@@H](CCC(N)=O)C(=O)N[C@@H](CCCCN)C(=O)N[C@@H](CCC(=O)O)C(=O)N[C@@H](Cc1ccccc1)C(=O)N[C@H](C(=O)N[C@@H](CC(N)=O)C(=O)N[C@@H](Cc1c[nH]c2ccccc12)C(=O)N[C@@H](CC(C)C)C(=O)N[C@@H](CC(C)C)C(=O)N[C@@H](C)C(=O)NC(C)(C)C(=O)N[C@@H](CCCCN)C(N)=O)C(C)C) [Compound 19]	0.015	0.0073

From patent US20150299281A1 (ZEALAND PHARMA A S, published 2015)
